Measured values from paper PMC10720262 (2023).
Residue numbers refer to the chain shown, from its start.

B1: Ky15.11 (antibody, V domains shown)
VH: QVQLVESGGGVVQPGRSLRLSCEASGFTFSNFGMHWVRQTPVKGLEWVAIIWFDGSYKYYTDSVKGRFTISRDNSKNTLYLQMNSLRAEDTAVYYCARARKGQRSDYYGSETSYTFDNWGQGTLVTVSS
VL: DIQMTQSPSTLSASVGDRVTITCRASQSINGWLAWYQQKPGKAPKFLIYKASILESGIPSRFSGSGSGTEFTLTISSLQPDDFATYYCQQYSSYWTFGQGTKVEIK
modifications: peptides N-terminally acetylated and C-terminally amidated
B2: Ky15.7 (antibody, V domains shown)
VH: QVQVVESGGGAVQPGRSLRLSCAASGFTFSNRGMHWVRQTPGKGLEWVAIIWYDGGNKFYADSVKGRFTISRDNSKNTLYLQMNSLRDEDTAVYYCVRAGDWKADKYTMDVWGQGTTVTVSS
VL: B1 VL with N30S, G31S, F46V, K50Q, I53S, I58V, S92N
modifications: peptides N-terminally acetylated and C-terminally amidated
B3: CL-511776 (antibody, V domains shown)
VH: QVQLVESGGGVVQPGRSLTLSCAASGFTFSNFGMHWVRQAPGKGLEWMAVIWYDGNNEFYADSVKGRFTISRDNSKNMLYLHMNSLRAEDTAIYYCAREGDYSASGSHWLFDPWGQGTQVTVSS
VL: DIQMTQSPSTLSASVGDSITITCRASQSINIWLAWYQQKPGKAPNLLIYKASSLESGVPSRFSGSGSGTEFTLTINSLQPDDFATYYCQQYNNYVTFGGGTKVEIK
modifications: peptides N-terminally acetylated and C-terminally amidated
B4: CL-531286 (antibody, V domains shown)
VH: QVQLVESGGGLVQPGRSLRLSCAASGFTFSSSGMHWVRQAPGKGLEWVAVIWYDGSNKFYADSVKGRFTISRDNSKNTLYLQMNSLRAEDTAVYYCARSGYDILTGYFNFFDPWGQGTLVTVSS
VL: EIVLTQSPGTLSLSPGERATLSCRASQSVSSSHLAWYQQKPGQAPRLLIYGASSRATGIPDRFSGSGSGTDFTLTISRLEPEDFAVYYCHQYVSSFTFGPGTKVDFK
modifications: peptides N-terminally acetylated and C-terminally amidated
B5: Ky15.3 (antibody, V domains shown)
VH: QVQLVESGGGVVQPGRSLRLSCVASGFTFSNAGMHWVRQTPGKGLEWVAIIWYDGSIKYYGESVKGRFTISRDNSKNTLYLEMSSLRAEDTAVYFCVRAYSGSLYDKYGMDVWGQGTTVIVSS
VL: DIQMTQSPSTLSASVGDRVTISCRASQTISTWLAWFQQKPGKAPKLLIYAASSLQSGVPSRFSGSGSGTDFTLTISNLQPDDFATYYCQQFNSYWTFGQGTKVEIK
modifications: peptides N-terminally acetylated and C-terminally amidated
B6: CL-460506 (antibody, V domains shown)
VH: QVQLVESGGGVVQPGRSLRLSCAASGFTFSNYGMHWVRQAPGKGLEWMAIIWYDGSNKYYADSVKGRFTISRDNSMNTLYLQMNSLRPEDTALYYCARAFYYGSGTLDYWGQGTLVTVSS
VL: EIVLTQSPATLSVSPGERATLSCRASQSVSSHLAWYQQKFGQAPRLLIYGASNRATGIPARFSGSGSGTEFTLTISILQSEDFAVYYCQQYNNWFTFGPGTKIDIK
modifications: peptides N-terminally acetylated and C-terminally amidated
B7: CL-515341 (antibody, V domains shown)
VH: QVYLVESGGGVVQPGKSLRLSCAASGFTFSNYGMHWVRQAPGKGLEWVAIIWHDGSNKFYSDSVRGRFTISRDNSQNTLYLQMNSLSAEDTALYFCAKDIGYSNTWDYFDYWGQGTLVTVSS
VL: EIVLTQSPATLSLSPGERATLSCRASQSVNSFLAWYQQKPGQAPRLLIYDASNRATDIPDRFSGSGSGTDFTLTIRSLEPEDFAVYFCQQRSKWFTFGGGTTVEMK
modifications: peptides N-terminally acetylated and C-terminally amidated
B8: CL-509293 (antibody, V domains shown)
VH: QVQLVASGGGVVQPGRSLRLTCAASGFTFSNYGMHWVRQSPGRGLEWVAIIWYDGSNKFYADSVKGRFTISRDNSKNTLYLQMNSLRAEDTAVYYCAKAEQRTNDNYYKYGMDVWGQGTTVTVST
VL: not shown
modifications: peptides N-terminally acetylated and C-terminally amidated
B9: CL-447703 (antibody, V domains shown)
VH: QVQLVESGGGVVQPGRSLRLSCEASGFTFSDHGMHWVRQGPGKGLEWVSIIWYDGSNKYYADSVKGRFTISRDNSKNTLYLEMNRLRAEDTALYYCARVWNHDDYKYSMDVWGQGTTVTVSS
VL: not shown
modifications: peptides N-terminally acetylated and C-terminally amidated

Target: PfCSP full length (Plasmodium falciparum (isolate NF54), UniProt P19597)
Test: ELISA AUC

Sequence of PfCSP full length (P19597 20-375): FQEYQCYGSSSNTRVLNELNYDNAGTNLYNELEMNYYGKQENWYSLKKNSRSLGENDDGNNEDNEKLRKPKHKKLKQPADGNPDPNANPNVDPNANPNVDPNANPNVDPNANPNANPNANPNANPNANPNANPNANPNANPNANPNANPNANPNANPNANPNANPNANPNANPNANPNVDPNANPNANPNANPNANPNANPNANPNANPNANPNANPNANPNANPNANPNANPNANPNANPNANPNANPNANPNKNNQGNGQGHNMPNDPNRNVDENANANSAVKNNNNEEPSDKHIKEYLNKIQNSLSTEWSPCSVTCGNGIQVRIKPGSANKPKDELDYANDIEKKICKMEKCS

Row | Binder | binding score
1 | B1 | 2.53
2 | B2 | 2.3
3 | B3 | 2.14
4 | B4 | 2.29
5 | B5 | 2.2
6 | B6 | 2.2
7 | B7 | 2.38
8 | B8 | 2.12
9 | B9 | 2.5
